Results published in the supplement of paper PMC9170038.

System: MS2 coat protein
Assay: apparent KD of MS2 coat protein; designed switch direction (-1 OFF switch, 1 ON switch): -1; higher = weaker reporter binding
In short: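 Three titration conditions were used: no input, 200 uM small-molecule ligand, and an oligonucleotide input. In each, SNAP-549-labelled MS2 coat protein was raised from 0.7 or 1.5 nM, doubling, to 3 µM over designed RNA switches transcribed on Illumina chips by stalled E. coli RNA polymerase. Curve fits of normalised cluster fluorescence gave values whose per-design median over clusters is the apparent KD.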

[1] = Eterna round: R95, input ligand: microRNA oligo, concentration not stated
[2] = input ligand: microRNA oligo, concentration not stated
[3] = Eterna round: R95, input ligand: FMN 200 uM
[4] = Eterna round: R95, input ligand: none

## CUUUUGUGAGGAUAUCAGUAGUAAAUAAAUAAAAUUACUAUUGAGAAGGCACAUGAGGAUCACCCAUGUUCCUC [salish99_ex3_r3_088] (puzzle: Exclusion 4)
[1]
  apparent KD of MS2 coat protein: 0.0339 µM

## CUUUUGUGAGGAUAUCAGUAGUAAAUAAAUAAAAUUUCUACUGAGAAGGCACAUGAGGAUCACCCAUGUUCCUC [salish99_ex3_r3_085] (puzzle: Exclusion 4)
[1]
  apparent KD of MS2 coat protein: 0.0363 µM

## CUUUUGUGAGGAUAUCAGUAGUAAUAAAAUAAAAUAACUACUGAGAAGGCACAUGAGGAUCACCCAUGUUCCUC [Mat - Exclusion 4 - Mod of Salish - D72] (puzzle: Exclusion 4)
[1]
  apparent KD of MS2 coat protein: 0.03 µM

## CUUUUGUGAGGAUAUCAGUAUUAAAUAAAUAAAAUUACUACUGAGAAGGCACAUGAGGAUCACCCAUGUUCCUC [salish99_ex3_r3_074] (puzzle: Exclusion 4)
[1]
  apparent KD of MS2 coat protein: 0.0375 µM

## CUUUUGUGAGGAUAUCUGUAGUAAAAAAAUAAAAUUACUACUGAGAAGGCACAUGAGGAUCACCCAUGUUCCUC [salish99_ex4_r3_035] (puzzle: Exclusion 4)
[1]
  apparent KD of MS2 coat protein: 0.034 µM

## CUUUUGUGAGGAUAUUAGUAGUAAAUAAAUAUAAUUACUACUGAGAAGGCACAUGAGGAUCACCCAUGUUCCUC [salish99_ex4_r3_058] (puzzle: Exclusion 4)
[1]
  apparent KD of MS2 coat protein: 0.0355 µM

## CUUUUGUGAGGAUAUUCAUAGUAGGGUCAUGGCAUUAUUAUGAAGAAGGCACAUGAGGAUCACCCAUGUACCUU [EX4 #49] (Eterna round: R97, puzzle: Exclusion 4)
Input ligand: FMN 200 uM
  apparent KD of MS2 coat protein: 0.0328 µM
Input ligand: none
  apparent KD of MS2 coat protein: 0.0215 µM

## CUUUUUUUUGUGAGGAUAUACUGUUAUUAAAGUUAGUAGAAGGUACAUGAGGAUCACCCAUGUUAAUUACUCUA [JR_BME4_Sub049] (puzzle: Brourd's mod of Exclusion 4)
[1]
  apparent KD of MS2 coat protein: 0.0142 µM

## GAAAACCGGUGAGGAUAUUUAUAAUAGAGCUUUAUGAUAUACAUGAGGAUCACCCAUGUUACUUUAAAGAAGGCAUCGGAAAAG [Mat - Exclusion NG 2 - Mod of JL - D94] (Eterna round: R96, puzzle: Exclusion NG 2)
Input ligand: FMN 200 uM
  apparent KD of MS2 coat protein: 0.0191 µM
[2]
  apparent KD of MS2 coat protein: 0.0125 µM
Input ligand: none
  apparent KD of MS2 coat protein: 0.0189 µM

## GAAAACGCAGAGGAUAUAUCAGAUCAAAGCUGCAUAGAAGGCUGCACAUGAGGAUCACCCAUGUGGUCUUCAAU [Mat - Exclusion 6 - JL Mod - D5] (Eterna round: R97, puzzle: Exclusion 6)
Input ligand: FMN 200 uM
  apparent KD of MS2 coat protein: 0.282 µM
Input ligand: none
  apparent KD of MS2 coat protein: 0.0238 µM

## GAAAACGUAGGAUAUACGAAAAAAAAGGGUAGAAAAAAAACACAUGAGGAUCACCCAUGUAGAAGGACGAAAAG [salish99_ex2_r3_094] (puzzle: Exclusion 2)
[3]
  apparent KD of MS2 coat protein: 0.0663 µM
[1]
  apparent KD of MS2 coat protein: 0.0389 µM
[4]
  apparent KD of MS2 coat protein: 0.0554 µM

## GAAAAGGUAGAGGAUAUUUCAGAUCAAAGCUGCAAAGAAGGCUGCACAUGAGGAUCACCCAUGUGGUCUUAAAA [Mod of Quesina 8 - Jieux - Exclusion 6] (Eterna round: R97, puzzle: Exclusion 6)
Input ligand: FMN 200 uM
  apparent KD of MS2 coat protein: 0.0623 µM
Input ligand: none
  apparent KD of MS2 coat protein: 0.0209 µM

## GAAAAGGUAGGAUAUACGAAAAAAAAGGAUAGAAAAAAAACACAUGAGGAUCACCCAUGUAGAAGGACCAAAAG [salish99_ex2_r3_066] (puzzle: Exclusion 2)
[3]
  apparent KD of MS2 coat protein: 0.0352 µM
[1]
  apparent KD of MS2 coat protein: 0.0255 µM
[4]
  apparent KD of MS2 coat protein: 0.0233 µM

## GAAAAGGUAGGAUAUACGAAAAAAAAGGGUAGAAAAAAAACACAUGAGGAUCACCCAUGUAGAAGGACCAAAGG [salish99_ex2_r3_040] (puzzle: Exclusion 2)
[3]
  apparent KD of MS2 coat protein: 0.0463 µM
[1]
  apparent KD of MS2 coat protein: 0.0285 µM
[4]
  apparent KD of MS2 coat protein: 0.026 µM

## GAAAAGGUAGGAUAUACGAAAAAAAAGGGUAGAAAAAAAACACAUGAGGAUCACCCAUGUAGAAGGGCCAAAAG [salish99_ex2_r3_032] (puzzle: Exclusion 2)
[3]
  apparent KD of MS2 coat protein: 0.0402 µM
[1]
  apparent KD of MS2 coat protein: 0.034 µM
[4]
  apparent KD of MS2 coat protein: 0.0453 µM

## GAAAAGGUAGGAUAUACGAAAAAAAAGGGUAGAAAAAAAAUACAUGAGGAUCACCCAUGUAGAAGGACCAAAAG [salish99_ex2_r3_060] (puzzle: Exclusion 2)
[3]
  apparent KD of MS2 coat protein: 0.0244 µM
[1]
  apparent KD of MS2 coat protein: 0.0233 µM
[4]
  apparent KD of MS2 coat protein: 0.0225 µM

## GAAAAGGUAGGAUAUACGAAAAAAAAGGGUAGAAUAAAAACACAUGAGGAUCACCCAUGUAGAAGGACCAAAAG [salish99_ex2_r3_077] (puzzle: Exclusion 2)
[3]
  apparent KD of MS2 coat protein: 0.0804 µM
[1]
  apparent KD of MS2 coat protein: 0.0318 µM
[4]
  apparent KD of MS2 coat protein: 0.0289 µM

## GAAAUCGAAGGAUAUCCGGGUGUCCACAUGAGGAUCACCCAUGUACUGGCCAAUAGCCAGGGAGAAGGUCGCCCAA [EX5 A.3] (Eterna round: R97, puzzle: Exclusion 5)
Input ligand: FMN 200 uM
  apparent KD of MS2 coat protein: 0.131 µM
Input ligand: none
  apparent KD of MS2 coat protein: 0.104 µM

## GAAGAGUGAGGAUAUACAUGAGGAUCACCCAUGUUAACCUUCUACAGCAUGGACUCGAGUAGAAGGCGCCAAGA [Eternabot (Original) Solution 21] (Eterna round: R97, puzzle: Exclusion 3)
Input ligand: FMN 200 uM
  apparent KD of MS2 coat protein: 0.0203 µM
Input ligand: none
  apparent KD of MS2 coat protein: 0.0258 µM

## GAAUAGAGAGGAUAUGCAAUGAAGGUAGUACGAUAUGUCUGACAUGAGGAUCACCCAUGUAGAAGGCUCAGAUC [EX2 #9] (Eterna round: R97, puzzle: Exclusion 2)
Input ligand: FMN 200 uM
  apparent KD of MS2 coat protein: 0.0638 µM
Input ligand: none
  apparent KD of MS2 coat protein: 0.0298 µM

## GAAUAGGCAGGAUAUACAUGAGGAUCACCCAUGUGCCUGCGAAAGGUACGUUCGAAAGGUAGAAGGGCCUAAAC [ChP 13.04.2015 #6] (puzzle: Exclusion 3)
[1]
  apparent KD of MS2 coat protein: 0.0122 µM

## GAAUAGGCAGGAUAUACAUGAGGAUCACCCAUGUGCUUGCGAUCGGCAAGCGAACAACGUAGAAGGGCCUUAAC [ChP 13.04.2015 #13] (puzzle: Exclusion 3)
[1]
  apparent KD of MS2 coat protein: 0.0158 µM

## GAAUAGUGAGGAUAUACUUGCAGUGUACCUCGGGUGAUCUCACUUGAGGAUCACCCAAGUAGAAGGCGCGAGGG [EX2 #22] (Eterna round: R97, puzzle: Exclusion 2)
Input ligand: FMN 200 uM
  apparent KD of MS2 coat protein: 0.0208 µM
Input ligand: none
  apparent KD of MS2 coat protein: 0.00903 µM

## GAAUCGCAUGUUAGGAUAUAUCUGUCGGAGUAUGGAUAGAAGGGACAUGAGGAUCACCCAUGUGAAGGCCGUUC [Eternabot (L1) Solution 58] (Eterna round: R97, puzzle: Brourd's mod of Exclusion 4)
Input ligand: FMN 200 uM
  apparent KD of MS2 coat protein: 0.21 µM
Input ligand: none
  apparent KD of MS2 coat protein: 0.0901 µM

## GAAUGAGAGCAGGAUAUCUUAUCAAUGUACGAAAGAGAAGGGCUCACAUGAGGAUCACCCAUGUGGUCCUAGAU [jl-ex6-4.66 jandersonlee mod] (Eterna round: R97, puzzle: Exclusion 6)
Input ligand: FMN 200 uM
  apparent KD of MS2 coat protein: 0.576 µM
Input ligand: none
  apparent KD of MS2 coat protein: 0.0788 µM

## GACAUGAGGAUCACCCAUGUAAGGGAUGAACUUCUGGGUAGCUAGGAUAUGGCUACAAAUGUGGACCAGAAGGAGCAUACCCUA [Didianveon] (Eterna round: R96, puzzle: Exclusion NG 3)
Input ligand: FMN 200 uM
  apparent KD of MS2 coat protein: 0.013 µM
[2]
  apparent KD of MS2 coat protein: 0.0127 µM
Input ligand: none
  apparent KD of MS2 coat protein: 0.0167 µM

## GACCAGGUAGGAUAUGCAGGGUAGGACUUGAGGAUCACCCAAGUGGCCAAAGUGCGUCCCGCAGAAGGGCCGAACC [Teararatbi] (Eterna round: R97, puzzle: Exclusion 5)
Input ligand: FMN 200 uM
  apparent KD of MS2 coat protein: 0.356 µM
Input ligand: none
  apparent KD of MS2 coat protein: 0.386 µM

## GACCAGGUAGGAUAUGCAGGGUCGGACUUGAGGAUCACCCAAGUGGCCAAAGUGCGUCCCGCAGAAGGGCCGAAAA [Isisusge] (Eterna round: R97, puzzle: Exclusion 5)
Input ligand: FMN 200 uM
  apparent KD of MS2 coat protein: 0.215 µM
Input ligand: none
  apparent KD of MS2 coat protein: 1.23 µM
